Results taken from the supplement of paper PMC10065799, “High-throughput profiling of sequence recognition by tyrosine kinases and SH2 domains using bacterial peptide display” (eLife, 2023).

Target: EPHB1 (UniProt P54762)
Experiment: phosphorylation enrichment, bacterial display (enrichment ratio); higher = better substrate or ligand; peptides without Tyr show the background
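Also: 11-residue human phosphosite peptides and single-mutation variants displayed on the E. coli surface, counted by deep sequencing, each peptide's frequency after selection divided by its frequency in the unselected input library; frequency after pTyr selection over input frequency; kinase dosed for 20-30% of maximal phosphorylation in three min.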

Chain of EPHB1 (P54762 whole entry, looked up): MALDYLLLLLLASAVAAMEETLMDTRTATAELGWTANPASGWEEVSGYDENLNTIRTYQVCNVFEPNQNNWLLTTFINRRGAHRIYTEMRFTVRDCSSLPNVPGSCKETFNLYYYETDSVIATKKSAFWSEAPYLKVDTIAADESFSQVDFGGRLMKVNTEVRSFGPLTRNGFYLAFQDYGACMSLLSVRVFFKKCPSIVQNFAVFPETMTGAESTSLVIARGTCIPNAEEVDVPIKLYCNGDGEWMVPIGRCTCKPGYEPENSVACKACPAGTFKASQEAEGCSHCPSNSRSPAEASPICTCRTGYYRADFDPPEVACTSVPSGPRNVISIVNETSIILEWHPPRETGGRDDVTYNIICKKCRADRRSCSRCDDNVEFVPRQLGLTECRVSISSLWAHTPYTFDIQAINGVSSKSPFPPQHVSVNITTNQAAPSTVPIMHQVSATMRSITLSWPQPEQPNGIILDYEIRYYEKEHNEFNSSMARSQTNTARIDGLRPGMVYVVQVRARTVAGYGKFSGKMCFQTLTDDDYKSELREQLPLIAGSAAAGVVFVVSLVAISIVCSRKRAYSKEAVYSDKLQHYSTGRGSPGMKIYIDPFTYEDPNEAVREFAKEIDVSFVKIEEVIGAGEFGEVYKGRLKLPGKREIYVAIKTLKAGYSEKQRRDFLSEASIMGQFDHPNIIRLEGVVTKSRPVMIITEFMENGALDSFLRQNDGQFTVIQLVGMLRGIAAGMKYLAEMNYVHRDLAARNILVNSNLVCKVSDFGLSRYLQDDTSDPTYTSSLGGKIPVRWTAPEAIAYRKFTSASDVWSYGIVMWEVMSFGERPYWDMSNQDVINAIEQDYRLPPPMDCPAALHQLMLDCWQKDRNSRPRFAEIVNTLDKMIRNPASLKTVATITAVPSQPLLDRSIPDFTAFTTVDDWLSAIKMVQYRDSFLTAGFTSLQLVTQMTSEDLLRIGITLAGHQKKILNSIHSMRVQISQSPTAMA

Sequence	phosphorylation enrichment
PATINYLFEKG [NDUFS8_Y84_P85L]	0.541
PSRKDYETYQP [CTNND2_Y1154]	1.49
AHLTEYLSTHY [UQCRC1_Y219_D215H]	0.462
YEEDSYVTRSQ [RET_Y905_K907T]	0.59
FKTPTYPFLLP [PLD2_Y578_YF]	0.74
SFLSFYTSHVQ [NEFL_Y443_P440L_YF]	0.758
EYDRLYEEYTR [PIK3R1_Y467]	4.27
RRIFSYRGHLW [VHL_Y112_H110Y_YF]	0.47
SSQHRYSTPHA [RAF1_Y232]	0.479
SWSTSYSGFRC [NKAPL_Y91_Y96C_YF]	0.616
LYEDHYLLGTS [ASS1_Y87_R86H]	12.3
PPKFFYTRKLL [CYBB_Y41]	0.457
KKKKQYKGKYL [CASK_Y708_D710G]	0.502
IGMFSYVMLAS [GGCX_Y301]	0.649
PADCRYFTFPQ [GAMT_Y222_A224T_YF]	0.613
LRAGVYPEKDQ [DNM2_Y626]	0.443
AAVDNYCRHNY [HLA-DRB1_Y107_T106N]	0.519

Sequence	phosphorylation enrichment
LTERGYSFVTT [ACTA1_Y200]	0.796
CTTIHYNYRCN [TP53_Y234_M237R]	0.594
HDHYGYRQSVT [CD55_Y245_R240H]	0.4
NKFTTYLPWLP [C9orf24_Y126_R129W_YF]	3.63
LLLLFCVVRFC [MPZ_Y177_Y177C_YF]	0.803
CTTIHYNYMSN [TP53_Y234_C238S]	0.503
AVLSLCASGRT [ACTA2_Y145_Y145C]	0.58
SIYKDYYRYNF [PLA2G2D_Y85]	5.65
NTQRPYFKGGG [TYROBP_Y111_YF]	0.429
ILTLKYPIERG [ACTA1_Y71_H75R]	0.542
LSAPCYLNRIS [HEXA_Y421_W420C]	0.447
MKNDLYQTPLH [NFKB1_Y582_R578K]	0.668
SGAWSYNTSTE [SELE_Y24]	0.458
KDQGTYEDYVE [MYL6_Y86]	0.493
FFHCTYKKRMI [CLEC12A_Y242_YF]	0.444
GIFKDYFRFNF [PLA2G2D_Y85_S80G_YF]	0.57

Target: Hck (UniProt P08631)
Sequence (P08631 whole entry, looked up): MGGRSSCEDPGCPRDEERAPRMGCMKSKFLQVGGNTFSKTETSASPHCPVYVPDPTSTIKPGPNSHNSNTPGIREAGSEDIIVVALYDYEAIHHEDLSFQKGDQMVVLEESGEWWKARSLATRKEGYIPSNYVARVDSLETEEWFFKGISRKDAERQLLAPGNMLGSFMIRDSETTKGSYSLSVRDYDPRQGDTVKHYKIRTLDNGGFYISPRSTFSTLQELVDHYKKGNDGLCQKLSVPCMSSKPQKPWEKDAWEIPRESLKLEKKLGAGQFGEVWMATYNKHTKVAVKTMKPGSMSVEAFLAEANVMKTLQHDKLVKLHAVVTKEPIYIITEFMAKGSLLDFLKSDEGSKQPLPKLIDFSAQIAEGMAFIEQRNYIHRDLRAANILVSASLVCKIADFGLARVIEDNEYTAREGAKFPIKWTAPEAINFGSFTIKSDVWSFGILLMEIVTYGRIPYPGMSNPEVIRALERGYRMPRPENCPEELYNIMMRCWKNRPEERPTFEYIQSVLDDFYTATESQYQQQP
Experiment: as above

Sequence	phosphorylation enrichment
PATINYLFEKG [NDUFS8_Y84_P85L]	0.562
PSRKDYETYQP [CTNND2_Y1154]	0.873
AHLTEYLSTHY [UQCRC1_Y219_D215H]	0.517
YEEDSYVTRSQ [RET_Y905_K907T]	0.543
FKTPTYPFLLP [PLD2_Y578_YF]	0.43
SFLSFYTSHVQ [NEFL_Y443_P440L_YF]	0.428
EYDRLYEEYTR [PIK3R1_Y467]	6.46
RRIFSYRGHLW [VHL_Y112_H110Y_YF]	0.712
SSQHRYSTPHA [RAF1_Y232]	0.293
SWSTSYSGFRC [NKAPL_Y91_Y96C_YF]	0.642
LYEDHYLLGTS [ASS1_Y87_R86H]	1.19
PPKFFYTRKLL [CYBB_Y41]	0.462
KKKKQYKGKYL [CASK_Y708_D710G]	0.513
IGMFSYVMLAS [GGCX_Y301]	0.548
PADCRYFTFPQ [GAMT_Y222_A224T_YF]	0.761
LRAGVYPEKDQ [DNM2_Y626]	0.662
AAVDNYCRHNY [HLA-DRB1_Y107_T106N]	0.461

Sequence	phosphorylation enrichment
LTERGYSFVTT [ACTA1_Y200]	0.708
CTTIHYNYRCN [TP53_Y234_M237R]	0.497
HDHYGYRQSVT [CD55_Y245_R240H]	0.969
NKFTTYLPWLP [C9orf24_Y126_R129W_YF]	8.27
LLLLFCVVRFC [MPZ_Y177_Y177C_YF]	0.75
CTTIHYNYMSN [TP53_Y234_C238S]	0.434
AVLSLCASGRT [ACTA2_Y145_Y145C]	0.448
SIYKDYYRYNF [PLA2G2D_Y85]	3.09
NTQRPYFKGGG [TYROBP_Y111_YF]	0.326
ILTLKYPIERG [ACTA1_Y71_H75R]	0.49
LSAPCYLNRIS [HEXA_Y421_W420C]	0.507
MKNDLYQTPLH [NFKB1_Y582_R578K]	4.13
SGAWSYNTSTE [SELE_Y24]	0.379
KDQGTYEDYVE [MYL6_Y86]	0.617
FFHCTYKKRMI [CLEC12A_Y242_YF]	0.468
GIFKDYFRFNF [PLA2G2D_Y85_S80G_YF]	0.579

Target: MERTK (UniProt Q12866)
Sequence (Q12866 whole entry, looked up): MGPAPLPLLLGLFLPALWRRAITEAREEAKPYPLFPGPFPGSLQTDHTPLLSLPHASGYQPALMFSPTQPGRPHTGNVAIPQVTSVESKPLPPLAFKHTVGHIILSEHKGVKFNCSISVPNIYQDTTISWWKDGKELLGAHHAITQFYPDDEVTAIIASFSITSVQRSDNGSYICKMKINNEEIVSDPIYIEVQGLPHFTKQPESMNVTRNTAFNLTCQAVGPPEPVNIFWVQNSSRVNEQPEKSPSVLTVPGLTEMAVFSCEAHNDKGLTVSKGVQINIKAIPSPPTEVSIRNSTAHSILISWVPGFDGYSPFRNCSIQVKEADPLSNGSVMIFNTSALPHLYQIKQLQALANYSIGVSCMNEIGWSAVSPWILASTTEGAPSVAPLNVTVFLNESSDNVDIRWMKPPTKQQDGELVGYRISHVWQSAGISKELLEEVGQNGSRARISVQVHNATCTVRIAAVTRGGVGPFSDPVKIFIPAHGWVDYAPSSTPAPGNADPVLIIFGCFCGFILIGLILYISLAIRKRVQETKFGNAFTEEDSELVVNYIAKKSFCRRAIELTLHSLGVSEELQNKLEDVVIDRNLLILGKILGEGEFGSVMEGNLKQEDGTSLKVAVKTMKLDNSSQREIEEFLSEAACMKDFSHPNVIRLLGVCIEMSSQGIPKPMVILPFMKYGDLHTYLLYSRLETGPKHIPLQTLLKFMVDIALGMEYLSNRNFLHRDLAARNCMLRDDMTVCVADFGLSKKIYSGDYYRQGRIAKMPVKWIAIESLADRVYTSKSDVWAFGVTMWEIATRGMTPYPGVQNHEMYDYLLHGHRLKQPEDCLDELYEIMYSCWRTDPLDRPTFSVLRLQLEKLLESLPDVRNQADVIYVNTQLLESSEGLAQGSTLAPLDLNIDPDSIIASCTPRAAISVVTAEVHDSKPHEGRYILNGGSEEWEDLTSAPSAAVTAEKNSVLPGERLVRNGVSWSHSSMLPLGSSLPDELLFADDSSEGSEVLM
Experiment: as above

Sequence	phosphorylation enrichment
PATINYLFEKG [NDUFS8_Y84_P85L]	0.36
PSRKDYETYQP [CTNND2_Y1154]	0.6
AHLTEYLSTHY [UQCRC1_Y219_D215H]	0.464
YEEDSYVTRSQ [RET_Y905_K907T]	0.468
FKTPTYPFLLP [PLD2_Y578_YF]	0.588
SFLSFYTSHVQ [NEFL_Y443_P440L_YF]	0.533
EYDRLYEEYTR [PIK3R1_Y467]	2.8
RRIFSYRGHLW [VHL_Y112_H110Y_YF]	0.6
SSQHRYSTPHA [RAF1_Y232]	0.437
SWSTSYSGFRC [NKAPL_Y91_Y96C_YF]	0.424
LYEDHYLLGTS [ASS1_Y87_R86H]	2.08
PPKFFYTRKLL [CYBB_Y41]	0.766
KKKKQYKGKYL [CASK_Y708_D710G]	0.629
IGMFSYVMLAS [GGCX_Y301]	0.477
PADCRYFTFPQ [GAMT_Y222_A224T_YF]	1.66
LRAGVYPEKDQ [DNM2_Y626]	0.43
AAVDNYCRHNY [HLA-DRB1_Y107_T106N]	0.46

Sequence	phosphorylation enrichment
LTERGYSFVTT [ACTA1_Y200]	0.769
CTTIHYNYRCN [TP53_Y234_M237R]	0.465
HDHYGYRQSVT [CD55_Y245_R240H]	0.883
NKFTTYLPWLP [C9orf24_Y126_R129W_YF]	1.4
LLLLFCVVRFC [MPZ_Y177_Y177C_YF]	0.718
CTTIHYNYMSN [TP53_Y234_C238S]	0.502
AVLSLCASGRT [ACTA2_Y145_Y145C]	0.402
SIYKDYYRYNF [PLA2G2D_Y85]	5.06
NTQRPYFKGGG [TYROBP_Y111_YF]	0.454
ILTLKYPIERG [ACTA1_Y71_H75R]	0.442
LSAPCYLNRIS [HEXA_Y421_W420C]	0.382
MKNDLYQTPLH [NFKB1_Y582_R578K]	1.81
SGAWSYNTSTE [SELE_Y24]	0.447
KDQGTYEDYVE [MYL6_Y86]	0.543
FFHCTYKKRMI [CLEC12A_Y242_YF]	0.321
GIFKDYFRFNF [PLA2G2D_Y85_S80G_YF]	0.56

Target: FGFR3 (UniProt P22607)
Sequence (P22607 whole entry, looked up): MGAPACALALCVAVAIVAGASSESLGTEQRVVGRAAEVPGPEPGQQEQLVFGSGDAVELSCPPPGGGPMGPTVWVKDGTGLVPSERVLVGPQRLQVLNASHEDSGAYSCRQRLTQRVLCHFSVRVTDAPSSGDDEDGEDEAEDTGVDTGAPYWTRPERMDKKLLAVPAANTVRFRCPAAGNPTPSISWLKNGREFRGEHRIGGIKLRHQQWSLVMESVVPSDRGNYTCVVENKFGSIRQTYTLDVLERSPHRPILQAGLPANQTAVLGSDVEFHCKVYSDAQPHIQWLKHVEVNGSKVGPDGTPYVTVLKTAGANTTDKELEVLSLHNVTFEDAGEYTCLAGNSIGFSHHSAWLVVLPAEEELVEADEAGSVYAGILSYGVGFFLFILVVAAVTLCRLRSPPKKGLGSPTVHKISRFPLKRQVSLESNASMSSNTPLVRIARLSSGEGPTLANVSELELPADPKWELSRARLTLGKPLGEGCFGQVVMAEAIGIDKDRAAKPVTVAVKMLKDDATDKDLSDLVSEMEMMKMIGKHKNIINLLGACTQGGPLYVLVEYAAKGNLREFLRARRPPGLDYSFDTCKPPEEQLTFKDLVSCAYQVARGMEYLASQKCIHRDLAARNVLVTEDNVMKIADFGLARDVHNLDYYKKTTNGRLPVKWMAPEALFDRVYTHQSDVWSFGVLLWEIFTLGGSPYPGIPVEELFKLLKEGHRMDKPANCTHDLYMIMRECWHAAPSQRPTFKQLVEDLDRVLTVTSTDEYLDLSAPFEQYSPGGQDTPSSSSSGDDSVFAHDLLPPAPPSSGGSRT
Experiment: as above

Sequence	phosphorylation enrichment
PATINYLFEKG [NDUFS8_Y84_P85L]	0.963
PSRKDYETYQP [CTNND2_Y1154]	0.695
AHLTEYLSTHY [UQCRC1_Y219_D215H]	0.585
YEEDSYVTRSQ [RET_Y905_K907T]	0.964
FKTPTYPFLLP [PLD2_Y578_YF]	0.704
SFLSFYTSHVQ [NEFL_Y443_P440L_YF]	0.682
EYDRLYEEYTR [PIK3R1_Y467]	0.889
RRIFSYRGHLW [VHL_Y112_H110Y_YF]	0.619
SSQHRYSTPHA [RAF1_Y232]	0.344
SWSTSYSGFRC [NKAPL_Y91_Y96C_YF]	0.763
LYEDHYLLGTS [ASS1_Y87_R86H]	0.972
PPKFFYTRKLL [CYBB_Y41]	0.614
KKKKQYKGKYL [CASK_Y708_D710G]	0.584
IGMFSYVMLAS [GGCX_Y301]	0.851
PADCRYFTFPQ [GAMT_Y222_A224T_YF]	1.09
LRAGVYPEKDQ [DNM2_Y626]	0.633
AAVDNYCRHNY [HLA-DRB1_Y107_T106N]	0.649

Sequence	phosphorylation enrichment
LTERGYSFVTT [ACTA1_Y200]	1.17
CTTIHYNYRCN [TP53_Y234_M237R]	0.713
HDHYGYRQSVT [CD55_Y245_R240H]	0.623
NKFTTYLPWLP [C9orf24_Y126_R129W_YF]	1.25
LLLLFCVVRFC [MPZ_Y177_Y177C_YF]	1.56
CTTIHYNYMSN [TP53_Y234_C238S]	0.629
AVLSLCASGRT [ACTA2_Y145_Y145C]	0.592
SIYKDYYRYNF [PLA2G2D_Y85]	11.1
NTQRPYFKGGG [TYROBP_Y111_YF]	0.467
ILTLKYPIERG [ACTA1_Y71_H75R]	0.655
LSAPCYLNRIS [HEXA_Y421_W420C]	0.535
MKNDLYQTPLH [NFKB1_Y582_R578K]	0.502
SGAWSYNTSTE [SELE_Y24]	0.621
KDQGTYEDYVE [MYL6_Y86]	0.721
FFHCTYKKRMI [CLEC12A_Y242_YF]	0.637
GIFKDYFRFNF [PLA2G2D_Y85_S80G_YF]	2.94
